We go through 21 sequences from the DeepSol protein solubility set.

This data set is described as follows: soluble on expression in E. coli; label from the status in PepcDB or PDB records.
“MRIALFTDTYIPQVNGVARTMKRLVDHLEKRQVEYALYMPETIEKLDRFESNIHTFASLPFFLYPECRIALPNVFKLRQQLTSFQPDLLHIATPFNVGLSGLQHGKKYGIPMVGSYHTHFDHYLHYYKLQFMSAWLWKYVKWFHQPFERTFVPSVETMRHLQKHGFQRLALWTRGVDCERFHPKQRHRSYAINLLPKDKAVLLYVGRLAPEKDLATLVAIMSLLPRELNEKIQWMIVGDGPSLPEMKKQCPSNVTFTGYLKGEELAAAYASADLFVFPSATETFGNVVLEAFASGTPAIVADRGGVTEIVEHGKSGMICKAGDAHTFIQAIEHLLMNRSKRAEMGYEARQYALTQSWERIFDDLLEQYEQVIFHHKKRHLALEHHHHHH”: the “soluble on expression in E. coli” value is reported as “not soluble”.

For the sequence “MRIALIFLVLLVSFASSCKNFDKYMNMFCRYGLEQSPCTVEDYSTYKSACCAMKNNCSYKEFPKDDVCCFTVECLKRCFPEKLLKNDKVY”, the “soluble on expression in E. coli” value is listed as “not soluble”.

As for “MRIEKVDTFPLFHKLSSPYGDANGLKSYRTSYLIRITTASGLTGWGECADWLPALDAGFKKRIIPYLIGKEASNRTELITVIKKWHQRAASAVSMALTDITAKKAGLSVCELWGGKLREQIPVYASFQSYSDRPDWSRHSLRLIEKAVRAGFKAVKLKAGGKMFSEDLAHIQAFQEMTGQSTGLILDANQSYDQAAARKWETWFSGWQNVLWFEEPMPFDDLAEYRMLRSALSVPVAGGENVKGAKPFLPIFLENAVDIAQPDVMHCEGTDEFQTVLKLARHFGKRVSPHSYDGGLSRIYAAFGQACLPHWTKMDGEDIEPLEWDAMENPFAQIVPVSIKDGCIQVPDKIEIDTELVEAYVWDGSSYI”, the “soluble on expression in E. coli” value is on record as “soluble”.

“MRIELSIKADDSLVSFSHQHLLVGTLQKWLGENDMHGKSISYSFSRLNGGKLVSELNSILFADWANMFVSAHDPELIRRMLAGIRQDPEMFKSLCVREVTVIEDPDMTDREIFFPASPILLKRWREDNGFDHIVYTDEAANALLTENLRKKLQAVGIDDPTATASFVPDQGKAKVMLIDYRGVKNKASWCPIRIIGNAETKLFAWNAGIGNSTGIGFGAIK”: the “soluble on expression in E. coli” value is given as “not soluble”.

Take “MRIFLDANVIADWILLKNKNQDASDPLLTERYRHMAESFKLVEEILKLKEKVSGTSQMAIAEVFGVIYDDAINMKLFREAVPASSWYWFSIRERKALSEDSQQLFLMEPHTSPQGI”: the “soluble on expression in E. coli” value is listed as “not soluble”.

For the sequence “MRIFSRLFKARDKPKNSLFGNAYSFFFGGTSSGKAVNERTAMQTTAVYACVRILAEAIAGLPLHVYRYKEDGGKEKALTHPLYYLLHDEPNPEMTSFVFRETLMSHLLLWGNAYAQIVRDGSGRVLALYPLLPNKMTVDRAPNGELYYTYRRDSDESRVNPKAGLIYLRSDEVLHIPGLGFDGLIGYSPIAMAKNAIGMAIACEEYGASFFANGANPGGVLEHPGVLKDPAKVRESWNAVYQGSANAHRIAVLEEGMKFQPIGIPPEQAQFLETRKFQINEIARIFRVPPHMVGDLEKSSFSNIEQQSLEFVKYTLDPWVVRWEQALQKALLLPSEKRAYFVKFNVDGLLRGDYASRMNGYAVARQNGWMSANDIRELEDMNRIPAELGGDLYLVNGNMTRLADAGTFAGKNNAETEGSKVEQITKTKTGSPLLELDTKR”, the “soluble on expression in E. coli” value was “not soluble”.

On to “MRIGINVGSTQVDAVILSKHGKVVAASETVIQDDETVLAIKEALVSLIRYLRDTDEVRGVFIGATSECQEVKLGKGLAKTGLIRLNRYQSQIQPLMKWPKALSDHVVYTQSVEIGEELDWFNYFQESLARLKEAEVEAIAVVGAFSPMDNCSEQLVKESLNYHLPSIPVTMSHTIGSIGFLERENAAVLNAVLSKKMKNTLKGVKDFLSSLGFHCPLWVTRNDGCLMTIEEAIEFPVLTLGSGSANSFRGGAFLAEERSCIVVHVSEGITKIGTMIQERFEESHSQTYVFGIPTNLRMPHSIVLPLGEEKQGALGHDIRHGNPSEKTKREEVLISERKGISLAERHAGSSASNLEDQQEMWSTLKQSGLDREAMTQYAERVNDSIEELQIYDQELPIVVVGSGAPCMMQRLQSQTREVVAPFGYQRCHAVGACLGMVSAEVDQVYHLKDQTKAEVIEEAKEKAIKEAERKGAFPDTISIEQVEEYPFDYLQGEVIRIRVKAVGQVKDSLEHHHHHH”, for which the “soluble on expression in E. coli” value was “not soluble”.

For the sequence “MRIGVIMGGVSSEKQVSIMTGNEMIANLDKNKYEIVPITLNEKMDLIEKAKDIDFALLALHGKYGEDGTVQGTLESLGIPYSGSNMLSSGICMDKNISKKILRYEGIETPDWIELTKMEDLNFDELDKLGFPLVVKPNSGGSSVGVKIVYDKDELISMLETVFEWDSEVVIEKYIKGEEITCSIFDGKQLPIISIRHAAEFFDYNAKYDDASTIEEVIELPAELKERVNKASLACYKALKCSVYARVDMMVKDGIPYVMEVNTLPGMTQASLLPKSADAAGIHYSKLLDMIIETSLRVRKEEGF”, the “soluble on expression in E. coli” value is reported as “not soluble”.

As for “MRIIETIEEMKKFSEEMREKKKTIGFVPTMGYLHEGHLSLVRRARAENDVVVVSIFVNPTQFGPNEDYERYPRDFERDRKLLEKENVDCIFHPSVEEMYPPDFSTYVEETKLSKHLCGRSRPGHFRGVCTVVTKLFNIVKPHRAYFGQKDAQQFRVLRRMVRDLNMDVEMIECPIVREPDGLAMSSRNVYLSPEERQQALSLYQSLKIAENLYLNGERDAEKIKEEMIKHLSRFDKVKIDYVEIVDEETLEPVEKIDRKVIVAVAAWVGNARLIDNTILG”, the “soluble on expression in E. coli” value was “soluble”.

On to “MRIKPECALCITRQVVDVAKEITDDKSEQFKIIAWGIEKISEAYGESSVPSFMGTEIHRHIKKMSKNSDPYKNLKNVANEFALKYLNDVEKLLESDDELERLQNKVKLSIAGNVIDFGPYSTGVNIEKMVKDTLDGKLDVDFSKELLDELKNSKKVFYTCDNAGEIVFDLPLIKELKNYVEVVVSVKGSPILNDATLDDVKTAGIDKVTKVITSGTDAIGVRFEESSEEFINELNSSDFVIAKGMGNYESLTEYEEKHGQNSEKIPVYYILKAKCEPVAEHIGVSEGDNVLLRKEISKVLEHHHHHH”, for which the “soluble on expression in E. coli” value is listed as “soluble”.

Regarding “MRIVALEGIDGSGVSTHSRLLHARLAGAGVKSCLWKEPTEGPVGRLIRGFLRSTEGVDSDLMALLFAADRLWGLRLGVVERCGGSPEVLVVDRYKYSSLAYQGVGSGLEWVDAVNRKAPEAEILVYIDVPTEVALRRITARERREVFETPEFLERVKSMYEEVLRLARARGVKVIRVEGVRGGVERGIEDVQGEIAERVFEALGLARA”, the “soluble on expression in E. coli” value is “soluble”.

In the case of “MRIVSLCPSNTELLAYLGRLDDVAAVDDSSDWPPEVKQLPKVGPDLHIDMDQVEALKPDLVVASLSVPGMERNVKELKRRGLPHLVLAPNSLDDIANDLLRLGEALGETKKAAELVRRYHDVLDWHRERAASAEPARLYWEWWPRPVFTPGGANWLSELSELAGGRNIFSDIPQASVQTEWDDVLARNPSHILLVWVGVQTKKMSPKAVTARPNAQQAEAVRTGNIHILEESLYCRPSPRLLVGLKKLAPLLHPALFPPADDSDPLLGG”, the “soluble on expression in E. coli” value is “not soluble”.

As for “MRIVTAAVMASTLAVSSLSHAAEVGSGDNWHPGEELTQRSTQSHMFDGISLTEHQRQQMRDLMQQARHEQPPVNVSELETMHRLVTAENFDENAVRAQAEKMANEQIARQVEMAKVRNQMYRLLTPEQQAVLNEKHQQRMEQLRDVTQWQKSSSLKLLSSSNSRSQLEHHHHHH”, the “soluble on expression in E. coli” value is on record as “soluble”.

In the case of “MRKKDAYISQVKVRQDPVNQLAVEMRAKRFGLTIEEAKNPLAGSYVGRLCLQGVLTQDQYDATQKYLEVRNDYSCAKGLPSAVYDEKPSSSDDKAREKWVERATEQFCNTQKVLKEAQCLYRQHNLYAALQYLVMEDQELPHLVNALRIALNTLQKYFDPKSKWEMFYCYEKLLKNR”, the “soluble on expression in E. coli” value is listed as “not soluble”.

As for “MRKLFIALTFLLVPACLSAQLGGKIYLQRADSLLQRVLSLYEVKKYGLLMETYPRNPKQQITYTANTGSEVTQQEVSFLWPYSAMVSGCVSLYKTSGNKKYKKLMDKQIKPGLDLYWDTTRQPECYQSYPAFAGQNDRYYDDNDWVAIDFCDYYAVTKNKEYLKKAIALHDYIYSGWSDELGGGIYWCEQKKESKNTCSNAPATVLCMKLYKLTKDKKYLDQAMATYQWTRDNLRDPSDFVYWDNKNLQGKIGYAKYTYNSGQMIQAGVLLYQATGDEQYLKDAQQTAKGSYEHFLKPQPTVKGEMKFFPSSPWFNVILFRGLKALYEVDKNDTYVKAMIDNADYAWQYTRDENGLLNNDWSGNRKDKFKSLLENSCMIELYSEISELLEHHHHHH”, the “soluble on expression in E. coli” value is recorded as “not soluble”.

Consider “MRKLKITELNRISAEEFKQAEKLPLVVVLDDIRSLHNIGSVFRTSDAFRIECIYLCGITATPPHPEMHKTALGAEFTVDWKYVNNAVDAVDNLRKEGYIVYSIEQAEGSIMLDRLELDKTKKYAIVMGNEVKGVQQEVIDHSDGCIEIPQYGTKHSLNVSVTTGIVIWDLFKKLR”, for which the “soluble on expression in E. coli” value is listed as “not soluble”.

On to “MRLEDEIKQVKAFKNDYNKAVVNLIFTYNWLESSSKAFFKDFDLTSQQFNILRILKGQHPNPSTINLLRDRMLDKMCDASRLVERLRIKGLVERSQASSDKRAVDIFITKKGEELLAKIEVEFPAFEEKLHTLSAEEIVVFNNLLDKLRG”, for which the “soluble on expression in E. coli” value is reported as “not soluble”.

Turning to “MRLERVLEEARAKGYPIEDNGLGNLWVVLPRERFKEEMAHYKAMGFNFLADIVGLDYLTYPDPRPERFAVVYELVSLPGWKDGDGSRFFVRVYVPEEDPRLPTVTDLWGSANFLEREVYDLFGIVFEGHPDLRKILTPEDLEGHPLRKDYPLGETPTLFREGRYIIPAEFRAALTGKDPGLTFYKGGSRKGYRSLWADLKKAREVKGLEHHHHHH”, the “soluble on expression in E. coli” value is “not soluble”.

In the case of “MRLILPVGLIATTLAIAPVRFDREKVFRVKPQDEKQADIIKDLAKTNELDFWYPGATHHVAAKMMVDFRVSEKESQAIQSALDQNKMHYEILIHDLQEEIEKQFDVKEDIPGRHSYAKYNNWEKIVAWTEKMMDKYPEMVSRIKIGSTVEDNPLYVLKIGEKNERRKAIFMDCGIHAREWVSPAFCQWFVYQATKTYGRNKIMTKLLDRMNFYILPVFNVDGYIWSWTKNRMWRKNRSKNQNSKCIGTDLNRNFNASWNSIPNTNDPCADNYRGSAPESEKETKAVTNFIRSHLNEIKVYITFHSYSQMLLFPYGYTSKLPPNHEDLAKVAKIGTDVLSTRYETRYIYGPIESTIYPISGSSLDWAYDLGIKHTFAFELRDKGKFGFLLPESRIKPTCRETMLAVKFIAKYILKHTS”, the “soluble on expression in E. coli” value was “soluble”.

In the case of “MRLLVMVFTSDKKLVEEIKREVERRGFRVRDVQSPDELRRDLEKLLREHNAQFVIIVVTDKEWAKEALKKAKEEGVQIFLILWDTNEDELRKFREEVERKGVDVRTATSPDDVKDIVREFLERVGSHHHHHH”, the “soluble on expression in E. coli” value is given as “soluble”.

Turning to “MRLPILIINFKAYGEAAGKRAVELAKAAERAARELGVNIVVAPNHLELGLVSQSVDIPVYAQGADVEAGGAHTAHVSLENIKEAGGSGVILNHSEAPLKLNDLARLVAKAKSLGLDVVVCAPDPRTSLAAAALGPHAVAVEPPELIGTGRAVSRYKPEAIVETVGLVSRHFPEVSVITGAGIESGDDVAAALRLGTRGVLLASAAVKAKDPYAKIVELAKPLSELR”, the “soluble on expression in E. coli” value is given as “soluble”.
